{"source": "IntAct's records for PubMed 13679922", "parents": {"B1": {"name": "Protein maternal effect lethal 26 (Caenorhabditis elegans), Q94420 (parent)", "chain": "MEPRIDGGVFIGGIGNSGNEMCSNGVPALGVSSQTEIKVEKVQHTWTVKNFSHCYQEYLENFVYLQRGDEQLTWSIKIYPKGNGENNKDFVFLCLNRVINNNVKAGKIGFKSQFKLRTAENKDIEMRIHPNPSHSDYVSYIKRDVLFPQIMPRDMIIVNVEIDVAVETITTTNEPIQFEPTNSEQQLIEDYQRLFSQELLCDFAINVNGKIIRAHKAVLAARSPVFNAMLTHQDTDEAKSSMMYINDMDYDVIYEMVYYIYCGRCNKDITDMATALLIAADKYRLEELKSHCEKYLVENINIENACSLLIIGDLYSAPKLRKRAVTYILARPKNVTGTPGWEDILKGHPNLITDIFSQIDRQSSTGATSSVSNLPGVPMDIPGITGNIVPPPSGL", "partner": "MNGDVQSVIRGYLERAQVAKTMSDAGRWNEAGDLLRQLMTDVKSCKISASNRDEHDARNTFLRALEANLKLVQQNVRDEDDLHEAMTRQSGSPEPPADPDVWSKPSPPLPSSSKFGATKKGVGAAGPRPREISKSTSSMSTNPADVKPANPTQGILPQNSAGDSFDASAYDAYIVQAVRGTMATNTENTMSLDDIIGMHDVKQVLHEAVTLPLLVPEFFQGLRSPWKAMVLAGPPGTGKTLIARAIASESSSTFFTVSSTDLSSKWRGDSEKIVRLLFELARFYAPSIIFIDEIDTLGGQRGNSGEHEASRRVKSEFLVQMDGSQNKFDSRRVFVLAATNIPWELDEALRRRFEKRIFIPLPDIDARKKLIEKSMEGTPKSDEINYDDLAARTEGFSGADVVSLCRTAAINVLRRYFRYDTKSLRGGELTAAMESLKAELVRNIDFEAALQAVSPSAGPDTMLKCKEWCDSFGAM"}, "B2": {"name": "Cullin-3 (Caenorhabditis elegans), Q17391 (parent)", "chain": "MSGRSGNGGQQKMRIRPFMATIDEQYVTQTWELLKRAIQEIQRKNNSGLSFEELYRNAYTMVLHKHGERLYNGLKDVIQDHMASVRIRIIESMNSGSFLETVAESWADHTVAMVMIRDILMYMDRIYVAQNNHVLPVYNLGLDAYRTEILRQNGIGDRIRDALLELIKLDRKSNQINWHGIKNACDMLISLGIDSRTVYEDEFERPLLKETSDYYRDVCKNWLSGDNDACFYLAQVEIAMHDEASRASRYLDKMTEAKILQVMDDVMVAEHIQTIVYMQNGGVKFMLEHKKIEDLTRIFRIFKRIGDSVTVPGGGLKALLKAVSEYLNETGSNIVKNEDLLKNPVNFVNELLQLKDYFSSLLTTAFADDRDFKNRFQHDFETFLNSNRQSPEFVALYMDDMLRSGLKCVSDAEMDNKLDNVMILFRYLQEKDVFEKYFKQYLAKRLLLDKSCSDDVEKALLAKLKTECGCQFTQKLENMFRDKELWLTLATSFRDWREAQPTKMSIDISLRVLTAGVWPTVQCNPVVLPQELSVAYEMFTQYYTEKHTGRKLTINTLLGNADVKATFYPPPKASMSNEENGPGPSSSGESMKERKPEHKILQVNTHQMIILLQFNHHNRISCQQLMDELKIPERELKRNLQSLALGKASQRILVRKNKGKDAIDMSDEFAVNDNFQSKLTRVKVQMVTGKVESEPEIRETRQKVEDDRKLEVEAAIVRIMKARKKLNHNNLVAEVTQQLRHRFMPSPIIIKQRIETLIEREYLARDEHDHRAYQYIA", "partner": "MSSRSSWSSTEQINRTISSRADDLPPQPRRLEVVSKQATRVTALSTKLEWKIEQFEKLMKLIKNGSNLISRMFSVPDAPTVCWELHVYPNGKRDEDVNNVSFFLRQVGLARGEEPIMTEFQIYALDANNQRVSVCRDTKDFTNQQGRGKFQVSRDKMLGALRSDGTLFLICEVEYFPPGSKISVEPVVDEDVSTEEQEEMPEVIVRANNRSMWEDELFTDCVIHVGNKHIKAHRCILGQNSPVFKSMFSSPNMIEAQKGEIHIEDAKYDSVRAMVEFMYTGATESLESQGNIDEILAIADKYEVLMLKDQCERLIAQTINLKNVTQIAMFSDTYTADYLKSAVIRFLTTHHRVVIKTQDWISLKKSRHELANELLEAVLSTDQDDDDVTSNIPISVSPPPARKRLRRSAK"}, "B3": {"name": "Cullin-3 (Caenorhabditis elegans), Q17391 (parent)", "chain": "B2 chain", "partner": "B1 chain"}, "B4": {"name": "Meiotic spindle formation protein mei-1 (Caenorhabditis elegans), P34808-2 (parent)", "chain": "B1 partner", "partner": "B1 chain"}}, "data": [{"variants_of": "B1", "conditions": "with mei-1, P34808-2", "values": [{"variant": "MEPRIDGGVFIGGIGNSGNEMCSNGVPALGVSSQTEIKVEKVQHTWTVKNFSHCYQEYLENFVYLQRGDEQLTWSIKIYPKGNGENNKDFVFLYLNRVINNNVKAGKIGFKSQFKLRTAENKDIEMRIHPNPSHSDYVSYIKRDVLFPQIMPRDMIIVNVEIDVAVETITTTNEPIQFEPTNSEQQLIEDYQRLFSQELLCDFAINVNGKIIRAHKAVLAARSPVFNAMLTHQDTDEAKSSMMYINDMDYDVIYEMVYYIYCGRCNKDITDMATALLIAADKYRLEELKSHCEKYLVENINIENACSLLIIGDLYSAPKLRKRAVTYILARPKNVTGTPGWEDILKGHPNLITDIFSQIDRQSSTGATSSVSNLPGVPMDIPGITGNIVPPPSGL", "note": "[C94Y]", "effect of a mutation on the interaction": "decreasing interaction"}]}, {"variants_of": "B2", "conditions": "with bat42_caeel bath-42, P34371", "values": [{"variant": "L49A", "effect of a mutation on the interaction": "decreasing interaction"}, {"variant": "E52A", "effect of a mutation on the interaction": "decreasing interaction"}]}, {"variants_of": "B3", "conditions": "with mel26_caeel mel-26, Q94420", "values": [{"variant": "L49A", "effect of a mutation on the interaction": "decreasing interaction"}, {"variant": "E52A", "effect of a mutation on the interaction": "decreasing interaction"}]}, {"variants_of": "B4", "conditions": "with mel26_caeel mel-26, Q94420", "values": [{"variant": "MNGDVQSVIRGYLERAQVAKTMSDAGRWNEAGDLLRQLMTDVKSCKISASNRDEHDARNTFLRALEANLKLVQQNVRDEDDLHEAMTRQSGSPEPPADLDVWSKPSPPLPSSSKFGATKKGVGAAGPRPREISKSTSSMSTNPADVKPANPTQGILPQNSAGDSFDASAYDAYIVQAVRGTMATNTENTMSLDDIIGMHDVKQVLHEAVTLPLLVPEFFQGLRSPWKAMVLAGPPGTGKTLIARAIASESSSTFFTVSSTDLSSKWRGDSEKIVRLLFELARFYAPSIIFIDEIDTLGGQRGNSGEHEASRRVKSEFLVQMDGSQNKFDSRRVFVLAATNIPWELDEALRRRFEKRIFIPLPDIDARKKLIEKSMEGTPKSDEINYDDLAARTEGFSGADVVSLCRTAAINVLRRYFRYDTKSLRGGELTAAMESLKAELVRNIDFEAALQAVSPSAGPDTMLKCKEWCDSFGAM", "note": "[P99L]", "effect of a mutation on the interaction": "decreasing interaction"}]}]}
